From patent publication US9758785B2, “miR-520 microRNAs sensitize cancers to platinum-based therapy” (BAYLOR COLLEGE OF MEDICINE, priority 2012, dated 2017) come the findings set out here.

Entries after “also recorded” stand apart in the source; their conditions may differ.

For data set [1], the system named is OVCAR8 xenografts. Briefly: Intraperitoneal ovarian cancer xenograft growth and metastasis. The class given is in vivo, mice. The note with it: for Total intraperitoneal tumor burden: between the three groups. As for the experimental part: Permission to perform animal experiments was obtained from the Institutional Animal Care and Use Committee (IACUC) for Baylor College of Medicine. Eight-week female athymic (Foxn1^nu/nu) mice were purchased from the National Cancer Institute-Charles River and maintained on a standard diet ad lib. Each animal was inoculated intraperitoneally with 2.5×10^6 cells stably transfected with vector driving miR-520h, a non-targeting miRNA control or empty vector. Expression of miR-520h was measured in cell lines using Taqman assays immediately prior to inoculation. Tumor xenografts were followed weekly for tumor progression or regression using the Image Station In-Vivo FX system (Kodak Molecular Imaging Systems, New Haven, Conn.) using endogenous RFP encoded by the pLemiR vector as a tag. At each time point, mice were anesthetized with isoflurane and placed in an imaging chamber, after which, fluorescent intensity images with x-ray overlay were obtained and analyzed. At the completion of the study, mice were euthanized after sedation under isoflurane (Abbott Laboratories, North Chicago, Ill.). For experiments involving treatment, cisplatin was administered at 5 mg/kg to mice by tail vein injection weekly for 4 weeks, after which, 1.5 mg/kg was administered biweekly. Tumor volume and distribution for all animals in each experiment were documented and correlated with imaging results.
The in vitro observations indicate that miR520g/h and/or miR-520a alter the proliferations of established ovarian cancer cell lines and in some embodiments are reasonably expected to promote their growth and metastasis in vivo. The inventors utilized xenograft models to characterize this embodiment. Foxn1^nu/nu mice were implanted subcutaneously or intraperitoneally with 2.5 million cells stably transfected with miR-520g/h, non-silencing microRNA control or empty vector alone. […] This difference was documented not only when tumor burden was measured according to the number and size of RFP active tumors that met imaging thresholds, but could also directly measured at necropsy (FIG. 5F). […]

Data set [2] deals with established ovarian cancer cell lines. Briefly: Proliferation or apoptosis in established ovarian cancer cell lines after mimic transfection. The note with it: mimics vs control cultures; cell lines SKOV4, HEY, OVCAR8, OVCAR5. The class given is cell-based, human. As for the experimental part:
Established ovarian cancer cell lines were obtained from the ATCC (OVCAR8, OVCAR5) and the University of Texas M.D. Anderson Cancer Center (HEYA8, SKOV3ip1). All cell lines were maintained at 37° C. in RPMI 1640 media (Invitrogen, Carlsbad, Calif.) supplemented with 10% fetal bovine serums (Hyclone, Logan, Utah) and 1% penicillin/streptomycin (Gibco, Carlsbad, Calif.). MicroRNA mimics and mimic controls (Dharmacon, Lafayette, Colo.) were transiently transfected into actively growing cultures using Lipofectamine 2000 (Invitrogen, Carlsbad, Calif.). After a 24-hour incubation, transfected cultures were washed, passaged and seeded into 96 well plates. Proliferation and apoptosis were measured at 72, 96 and 120 hours after transfection using standard assays (Cell Titer 96 Aqueous One; Caspase Glo 3/7; Promega, Madison, Wis.). pLemiR expression vectors (Open Biosystems/Thermo, Huntsville, Ala.) were prepared according to manufacturer's instructions and transfected into cells using Fugene 6 (Roche, Indianapolis, Ind.). Following transfection, stable clones were selected using puromycin (Invitrogen) at doses optimized for each line. […] Viability was assessed across a clinically relevant range of cisplatin concentrations using an MTS assay (Promega). […]

For data set [3], the system named is UPSC Ark1 cells. The data set can be described thus: Cisplatin dose response in uterine cancer cells stably transfected with lentiviral vector. The class given is cell-based. To be noted: UPSC Ark1 cells expressing miR-520h vs non-targeting miRNA control. As for the experimental part: UPSC Ark1 cells stably transfected with lentiviral vector driving the expression of either miR-520h or a non-targeting miRNA control were incubated with increasing concentrations of cisplatin.

The subject of data set [4] is ATM transcript. The data set can be described thus: qPCR of ATM transcript in OVCAR8 cells. It is filed as cell-based, human. The note with it: OVCAR8, qPCR vs non-silencing control, baseline without cisplatin. As for the experimental part: Total RNA was extracted from cell pellets using the mirVana miRNA extraction kit (Ambion, Austin, Tex.) according to the manufacturer's instructions. Levels of microRNA expression were examined using Mature MicroRNA Taqman assays (Applied Biosystems, Foster City, Calif.) using U6 as a control. For all gene expression assays, cDNA was prepared using qScript cDNA supermix (Quanta Biosciences, Gaithersburg, Md.). TaqMan gene expression assays (Applied Biosystems) were used to measure expression of specific target genes according to the manufacturer's instructions. All reactions were performed in triplicate using OneStepPlus real time PCR system (Applied Biosystems). All qPCR results are reported using the ΔΔCT method (17).

Data set [5] relates to HEY cells. Briefly: Apoptosis assay (Caspase Glo 3/7). The class given is cell-based, human. The note with it: mimic transfection. On the procedure: (§1) Established ovarian cancer cell lines were obtained from the ATCC (OVCAR8, OVCAR5) and the University of Texas M.D. Anderson Cancer Center (HEYA8, SKOV3ip1). All cell lines were maintained at 37° C. in RPMI 1640 media (Invitrogen, Carlsbad, Calif.) supplemented with 10% fetal bovine serums (Hyclone, Logan, Utah) and 1% penicillin/streptomycin (Gibco, Carlsbad, Calif.). MicroRNA mimics and mimic controls (Dharmacon, Lafayette, Colo.) were transiently transfected into actively growing cultures using Lipofectamine 2000 (Invitrogen, Carlsbad, Calif.). After a 24-hour incubation, transfected cultures were washed, passaged and seeded into 96 well plates. Proliferation and apoptosis were measured at 72, 96 and 120 hours after transfection using standard assays (Cell Titer 96 Aqueous One; Caspase Glo 3/7; Promega, Madison, Wis.). pLemiR expression vectors (Open Biosystems/Thermo, Huntsville, Ala.) were prepared according to manufacturer's instructions and transfected into cells using Fugene 6 (Roche, Indianapolis, Ind.). Following transfection, stable clones were selected using puromycin (Invitrogen) at doses optimized for each line. Rates of proliferation and apoptosis were examined in stable transfectants 24, 48, 72 and 96 hours after selected cells had been passaged and dispensed into 96 well plates. Viability was assessed across a clinically relevant range of cisplatin concentrations using an MTS assay (Promega). Cisplatin was obtained from Teva Pharmaceuticals (Irvine, Calif.).

The subject of data set [6] is OVCAR5. The data set can be described thus: Apoptosis assay (Caspase Glo 3/7). The class given is cell-based, human. To be noted: OVCAR5, mimic transfection. As for the experimental part:
as §1

The subject of data set [7] is SKOV3ip1 cells. Briefly: Apoptosis assay (Caspase Glo 3/7). It is filed as cell-based, human. As for the experimental part:
as §1

In data set [8] the test system is HEYA8 cells. Briefly: Apoptosis assay (Caspase Glo 3/7). It is filed as cell-based, human. To be noted: HEYA8, acute mimic transfection. As for the experimental part:
as §1

The subject of data set [9] is OVCAR8 cells. Briefly: Apoptosis assay (Caspase Glo 3/7). It is filed as cell-based, human. On the procedure:
as §1

Data set [10] deals with SKOV3ip1 cells. The data set can be described thus: Proliferation assay (MTS, Cell Titer 96 Aqueous One). The class given is cell-based, human. To be noted: no cisplatin. As for the experimental part: as §1
For data set [11], the system named is OVCAR8 cells. The description is as above. The class given is cell-based, human. To be noted: for Proliferation: no cisplatin. As for the experimental part:
as §1

B1: hsa-mir-520h MI0003175 (nucleic acid, listed as Homo sapiens)
chain: UCCCAUGCUGUGACCCUCUAGAGGAAGCACUUUCUGUUUGUUGUCUGAGAAAAAACAAAGUGCUUCCCUUUAGAGUUACUGUUUGGGA
modifications: expressed or natural sequence
notes: synthetic mimic or stably expressed from pLemiR vector; written miR-520g/h interchangeably
Consider B1, for which the “Number and size of intraperitoneal implants” value in [1] (OVCAR8 cells stably expressing the microRNA, intraperitoneal, no cisplatin, vs non-silencing control or empty vector, listed as miR-520g/h) is “larger number of smaller xenografts; also recorded: large number of smaller implants”. Further, the “Total intraperitoneal tumor burden” value in data set [1] is reported as “did not differ significantly”; in data set [1] (listed as miR-520g/h), “did not differ”. The “Impact on proliferation or apoptosis” value in [2] is “significantly impacted”. For the same molecule, in [3], the “Reduction of IC50 for cisplatin” value is listed as “more than 90%”. Moreover, the figures for the ATM transcript level entry in [4] and in data set [4] (listed as miR-520g/h) were “paradoxically higher” and “actually higher”, respectively. For the same molecule, the Apoptosis entry in data set [5] is “no impact”; in data set [6], “no impact”; in data set [8], “increase rates of apoptosis”. Also, the “Apoptosis (caspase 3/7)” value in data set [7] (SKOV3ip1, acute mimic transfection, no cisplatin) was “decreasing apoptosis”. The “Caspase 3/7 expression” value in data set [7] (SKOV3ip1 clones stably expressing the microRNA, no cisplatin) was “inhibited”; in data set [9] (OVCAR8 clones stably expressing the microRNA, no cisplatin), “inhibited”. Moreover, the “Apoptosis in presence of cisplatin” value is “significantly increased” in data set [7] (SKOV3ip1 stable clones, cisplatin treatment) and “significantly decreased; also recorded: significantly lower rates of apoptosis” in data set [9] (OVCAR8 stable clones, cisplatin up to 10 μg/mL, listed as miR-520g/h). Further, the Proliferation entry was “significantly reduced” in [10] (SKOV3ip1, acute mimic transfection); “enhanced the proliferation” in [10] (SKOV3ip1 clones stably expressing the microRNA); “significantly reduced” in data set [11] (OVCAR8, transient/acute mimic transfection vs non-silencing control); “significantly increased” in [11] (OVCAR8, transient/acute mimic transfection vs non-silencing control, listed as Mir-520g/h); “enhanced the proliferation” in data set [11] (OVCAR8 clones stably expressing the microRNA). Also, the Increase in proliferation in data set [11] (mimic, transient, 96 hours following transfection, vs non-silencing control) was determined as 19%.
